Positions count from the first letter of the chain named.
Columns and labels:
[1] = biological target: T1, BC2T K4E (human); test: library pulldown, LC-MS of supernatant; ratio vs GFP-Nb control (0=captured, 1=not captured)
T1 sequence (peptide, N-terminal acetyl, C-terminal amide): PDREAAVSHWQQ

[2] = biological target: mCherry tagged with the improved BC2T variations; test: capture on the BC2 nanotrap, SDS-PAGE and Coomassie, FIG. 19a
[3] = biological target: T2, BC2T Q11P; test: positional peptide library pulldown on immobilised Nb, LC-MS of supernatant; signal ratio to control GFP-Nb (1 = not captured, near 0 = captured)
T2 sequence (peptide, N-terminal acetyl; C-terminal amide): PDRKAAVSHWPQ

[4] = biological target: T3, BC2T S8D; test: as above
T3 sequence (peptide, N-terminal acetyl; C-terminal amide): PDRKAAVDHWQQ

[5] = biological target: T4, BC2T S8K; test: as above
T4 sequence (peptide, N-terminal acetyl; C-terminal amide): PDRKAAVKHWQQ

[6] = biological target: T5, BC2T R3Q; test: as above
T5 sequence (peptide, N-terminal acetyl; C-terminal amide): PDQKAAVSHWQQ

[7] = biological target: T6, BC2T R3S; test: as above
T6 sequence (peptide, N-terminal acetyl; C-terminal amide): PDSKAAVSHWQQ

B1: BC2-NbR106S (VHH, not shown: small tags and cut ends)
VHH: QVQLVESGGGLVQPGGSLTLSCTASGFTLDHYDIGWFRQAPGKEREGVSCINNSDDDTYYADSVKGRFTIFMDNAKDTVYLQMNSLKPEDTAIYYCAEARGCKRGSYEYDFWGQGTQVTVSS
[1]
  ratio: 0.9

B2: BC2 nanobody (VHH, not shown: small tags and cut ends)
VHH: B1 VHH with S106R
[2]
  percent protein bound: < 100%
[3]
  ratio: 0.6
[4]
  ratio: 0.8
[5]
  ratio: 0.8

B3: BC2-NbR106E (VHH)
VHH: B1 VHH with S106E
[6]
  ratio: 0.8
[7]
  ratio: 0.8

Source: patent publication US20170137467A1
